In patent US20250327097A1, “ORGANISMS PRODUCING LESS CROTONIC ACID” (Global Bioenergies, priority 2021, published 2025):
Positions count from the first letter of the chain named. Names and notes keep the numbering of the source.

B1: V272R-I283T-P284D-i284aP-N287P-S322T-N388M-E421V-C430N-L432F-L434W-S436N-C437F-H461T-dG462-A463T (protein)
chain: MFLKSLREQINLLKRQGDLRIINRPVDSYLEAAAIIRRSTETKAPVPLMTNIKGYPGCSIVGGLAALSSNPEYPLSRVAMSLGLSTTASAQSIVQYLIDGLKKTPYLPVEIDSNSAPCKQNILRGEDASLAHFPIPQVHQHDGNRYVNTWGVFIVESPDGQWCNWSIQRVQYLNDRQMIALVFPSQHISDIWEEWVKIGKPMPYALVQGCEPIVPYIAGLPLLERNVNEAEYIGALYGKGIEVVKCETHDLRVPASSEVVIEGYFAITREGREGPFGEFAGYTDNEPSLQPILSITAISWQDDPIWPVVAEGKPVDEYHTCTGIGDAAAIQNVLLTANLPVSFVWVPLYSACHLMIVSINRHWRQTHPDLTSEQLTKKVGDVIHQTRMSIKLPKIVVLDDDVDPADTESLLWALATRIHPVRKRYFYESNIFPWLNFYSEEERHNRKGKRVIIDALLPENTGTISSFDYAYPDDIKQRVLMHWETDFSHD
B2: I283T-P284D-i284aP-N287P-S322T-N388M-E421V-C430N-L432F-L434W-S436N-C437F-Y438L-H461T-G462R-i462aA-A463T (protein)
chain: B1 chain with R272V, Y438L, G462R
B3: I283T-P284D-i284aP-N287P-S322T-N388M-E421V-C430N-L432F-L434W-S436Q-C437F-H461T-G462R-i462aA-A463T (protein)
chain: B1 chain with R272V, N436Q, G462R
B4: I283T-P284D-i284aP-N287P-S322T-N388M-E421V-C430R-L432F-L434W-S436N-C437F-Y438L-H461T-G462R-i462aA-A463T (protein)
chain: B1 chain with R272V, N430R, Y438L, G462R
B5: V272R-I283T-P284D-i284aP-N287P-S322T-N388M-E421V-C430N-L432F-L434W-S436N-G448E-H461T-G462R-i462aA-A463T (protein)
chain: B1 chain with F437C, G448E, G462R
B6: I283T-P284D-i284aP-N287P-S322T-N388M-E421V-C430R-L432F-L434W-S436N-C437F-H461T-G462R-i462aA-A463T (protein)
chain: B1 chain with R272V, N430R, G462R
B7: K43E-I283T-P284D-i284aP-N287P-S322T-N388M-E421V-C430P-L432F-L434W-S436N-C437F-H461T-G462R-i462aA-A463T (protein)
chain: B1 chain with K43E, R272V, N430P, G462R
B8: V272R-I283T-P284D-i284aP-N287P-S322T-N388M-E421V-C430N-L432F-L434W-S436N-G448E-H461T-dG462-A463T (protein)
chain: B1 chain with F437C, G448E
B9: V272R-I283T-P284D-i284aP-N287P-S322T-N388M-E421V-C430N-L432F-L434W-S436N-C437F-G448E-H461T-G462R-i462aA-A463T (protein)
chain: B1 chain with G448E, G462R
B10: V272R-I283T-P284D-i284aP-N287P-S322T-N388M-E421V-C430N-L432F-L434W-S436N-H461T-G462R-i462aA-A463T (protein)
chain: B1 chain with F437C, G462R
B11: V272R-I283T-P284D-i284aP-N287P-S322T-N388M-E421V-C430N-L432F-L434W-S436N-C437F-H461T-G462R-i462aA-A463T (protein)
chain: B1 chain with G462R
B12: V272I-I283T-P284D-i284aP-N287P-S322T-N388M-E421V-C430N-L432F-L434W-S436N-C437F-H461T-G462R-i462aA-A463T (protein)
chain: B1 chain with R272I, G462R
B13: V272I-I283T-P284D-i284aP-N287P-S322T-N388M-E421V-C430R-L432F-L434W-S436N-C437F-H461T-G462R-i462aA-A463T (protein)
chain: B1 chain with R272I, N430R, G462R
B14: A33P-I283T-P284D-i284aP-N287P-S322T-N388M-E421V-C430N-L432F-L434W-S436N-C437F-H461T-G462R-i462aA-A463T (protein)
chain: B1 chain with A33P, R272V, G462R
B15: V272K-I283T-P284D-i284aP-N287P-S322T-N388M-E421V-C430N-L432F-L434W-S436N-C437F-H461T-G462R-i462aA-A463T (protein)
chain: B1 chain with R272K, G462R
B16: I283T-P284D-i284aP-N287P-S322T-N388M-I418V-E421V-C430N-L432F-L434W-S436N-C437F-H461T-G462R-i462aA-A463T (protein)
chain: B1 chain with R272V, I418V, G462R
B17: V272R-I283T-P284D-i284aP-N287P-S322T-N388M-E421V-C430N-L432F-L434W-S436N-C437F-G448E-H461T-dG462-A463T (protein)
chain: B1 chain with G448E
B18: I283T-P284D-i284aP-N287P-S322T-N388M-E421V-C430N-L432F-L434W-S436N-C437F-E441V-H461T-G462R-i462aA-A463T (protein)
chain: B1 chain with R272V, E441V, G462R
B19: I283T-P284D-i284aP-N287P-S322T-H384S-N388M-E421V-C430N-L432F-L434W-S436N-C437F-H461T-G462R-i462aA-A463T (protein)
chain: B1 chain with R272V, H384S, G462R
B20: V272I-I283T-P284D-i284aP-N287P-S322T-N388M-E421V-C430R-L432F-L434W-S436N-C437F-Y438L-H461T-G462R-i462aA-A463T (protein)
chain: B1 chain with R272I, N430R, Y438L, G462R

tested on: 3-methylcrotonic acid; format: biochemical, Yersinia frederiksenii; design: key: “+” representing a low increase in activity; “++++” representing a high increase in activity

Row | Molecule | Activity relative to WT
1 | B1 | ++++
2 | B2 | ++++
3 | B3 | ++++
4 | B4 | ++++
5 | B5 | ++++
6 | B6 | ++++
7 | B7 | ++++
8 | B8 | ++++
9 | B9 | ++++
10 | B10 | ++++
11 | B11 | ++++
12 | B12 | ++++
13 | B13 | ++++
14 | B14 | ++++
15 | B15 | ++++
16 | B16 | ++++
17 | B17 | ++++
18 | B18 | ++++
19 | B19 | ++++
20 | B20 | ++++
